The record followed here is article PMC4872100.

In general, Kd refers to a measure of binding affinity in units of concentration. A high value points to weaker binding. As a reminder, the koff is the rate constant with which the complex falls apart. One may read the kon as a measure of how fast the partners come together. High values mean faster complex formation, low ones slower complex formation.

What all share (experiment): SPR
(SPR reads the build-up and loss of mass on a sensor chip optically.)

Assay [1] concerns the target human uracil DNA glycosylase (human UDG) (human) (UniProt P13051).
For assay [2], the target named is Mycobacterium tuberculosis uracil DNA glycosylase (TBUDG) (Mycobacterium tuberculosis) (UniProt P9WFQ9).
The target in assay [3] is Epstein-Barr virus (human herpesvirus 4) uracil DNA glycosylase (EBVUDG) (Epstein-Barr virus (EBV; human herpesvirus 4)) (UniProt P12888).

In assay [1], SAUGI E24AQ52R (natural protein) registered a Kd of 3.3 nM, a koff of 0.00529 s⁻¹ and a kon of 1.6e+06 M⁻¹ s⁻¹.
On to “Staphylococcus aureus uracil-DNA glycosylase inhibitor SAUGI (natural protein)”, for which, in assay [2], the dissociation constant Kd was 198 nM; the ka1 (two-state model, step 1) is 4.32e+06 M⁻¹ s⁻¹; the ka2 (two-state model, step 2) is 20 M⁻¹ s⁻¹; the kd1 (two-state model, step 1) was found to be 1.39 s⁻¹. In assay [1], this substance showed a Kd of 1.96 nM, a koff of 0.00361 s⁻¹ and a kon of 1.85e+06 M⁻¹ s⁻¹. Also, in assay [3], the Kd is 0.475 nM, the koff amounted to 0.0012 s⁻¹ and the kon is 2.54e+06 M⁻¹ s⁻¹.
